Data from article PMC7438487, “Structural studies reveal flexible roof of active site responsible for ω-transaminase CrmG overcoming by-product inhibition” (Communications Biology, 2020).

How the values were obtained:
purified protein = substrate: C[C@H](N)C(=O)O; experiment: purified protein; details: 0.2 mM CRM M, 80 μM PLP, 4 μM CrmG, 200 mM Tris pH 7.5, 30 °C, covalent PLP-Ala external aldimine in crystal
[1] = substrate: NC(=O)CC[C@H](N)C(=O)O; experiment: transamination kinetics with CRM M as acceptor; crystal structure; type: biochemical, Actinoalloteichus sp. WH1-2216-6; details: 0.2 mM CRM M, 80 μM PLP, 4 μM CrmG, 200 mM Tris pH 7.5, 30 °C, no external aldimine in crystal
[2] = substrate: N[C@@H](CCC(=O)O)C(=O)O; experiment: transamination kinetics with CRM M as acceptor; crystal structure of external aldimine; type: biochemical, Actinoalloteichus sp. WH1-2216-6; details: 0.2 mM CRM M, 80 μM PLP, 4 μM CrmG, 200 mM Tris pH 7.5, 30 °C, covalent PLP-Glu external aldimine in crystal

B1: CrmG (Actinoalloteichus sp. WH1-2216-6) (protein)
chain: MTHPSGEPVYADAVLNGWLTSMGLGVEYVRAEGNTVYYLDDEGREVPVLDHACGFGSLIFGHNHPEIIAHAKAALDAGTVVHAQLSRQPRANQISRILNDIMRRETGRDDRYNAIFANSGAEANEICMKHAELERQERITALFAEIDAELDTAREALTTGTATLDTASLPLVGGGAGDVDGVIADIHRHNDERRAERPLFLTLDGSFHGKLVGSIQLTQNEPWRTPFTALSSPARFLPADEPELIGKIVEDERRSVLTLSLDKDTVRVVERDFPVVAAIFVEPVRGGSGMKTVTPELAEELHRLRDTLGCPLVVDEVQTGIGRTGAFFGSALLGIRGDYYTLAKAIGGGIVKNSVALIRQDRFLPAMEVIHSSTFAKDGLSASIALKVLEMVEADGGRVYQRVRERGQRLEAMLESVRADHSDVVSAVWGTGLMLALELRDQSNATSQAIREKAAHGFLGYVLAGFLLREHHIRVLPAGPRSGFLRFSPSLYITDEEIDRTETALRSLFTALRDQDGDRLVLS
notes: pET28a, N-terminal His-tag and 14 additional vector residues; expressed in E. coli BL21; dimer (114 kDa by DLS)
**Q.** Which Km (purified protein) does the source give for B1 here?
**A.** The Km was 405.10 µM.

**Q.** And the Km [1]?
**A.** The Km was 182.70 µM.

**Q.** What about the Km [2] of the same protein?
**A.** The Km was 80.02 µM.
